Laboratory results: patent publication US8729030B2 (Affymax, Inc., priority 2003, dated 2014)
Bridges are numbered along the chain shown (N, C = ends). Where no end group is shown, it is not given here. [ ]: non-standard residue; d: D form. 1Nal = N[C@@H](Cc1cccc2ccccc12)C(=O)O; Sar = CNCC(=O)O

Target: T1, Recombinant Human EPO R/Fc Chimera (Homo sapiens, UniProt P19235)
T1 construct: recombinant EPOr extracellular domain fused to the Fc portion of human IgG1; purchased R&D Systems (Minneapolis, MN, US) 963-ER
T1 sequence (P19235 25-250 limits assumed): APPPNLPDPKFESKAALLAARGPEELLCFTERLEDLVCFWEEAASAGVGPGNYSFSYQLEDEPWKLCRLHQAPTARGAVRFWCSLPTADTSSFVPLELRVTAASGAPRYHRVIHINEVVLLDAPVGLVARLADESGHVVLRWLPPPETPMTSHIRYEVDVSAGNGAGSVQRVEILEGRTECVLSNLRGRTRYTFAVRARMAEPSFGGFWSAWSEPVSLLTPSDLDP
Test: Radioligand competitive binding assay (125I-EPO)
Conditions: Table 6; competition with 125I-EPO, 4° C. overnight
Protocol: An alternative radioligand competition binding assay can also be used to measure IC50 values of peptides in this invention. This assay measures binding of ^125I-EPO to EPOr. The assay is preferably performed according to the following exemplary protocol:
One 50 μg vial of lyophilized recombinant EPOr extracellular domain fused to the Fc portion of human IgG1 is reconstituted in 1 mL of assay buffer. […] Tubes are capped and mixed gently at 4° C. overnight on a LabQuake rotating shaker.
The next day, 50 μL of a 50% slurry of Protein-G Sepharose is added to each tube. Tubes are then incubated for 2 hours at 4° C., mixing gently. The tubes are then centrifuged for 15 min at 4000 RPM (3297×G) to pellet the protein-G sepharose. The supernatants are carefully removed and discarded. After washing 3 times with 1 mL of 4° C. assay buffer, the pellets are counted in a Wallac Wizard gamma counter. Results are then analyzed and the dilution required to reach 50% of the maximum binding value is calculated.
The next day, bound ^125I-EPO is quantitated as described above. The results are analyzed and the IC50 value calculated using Graphpad Prism version 4.0, from GraphPad Software, Inc. (San Diego, Calif.). The assay is repeated two or more times for each peptide tested, for a total of 3 or more replicate IC50 determinations. See Table 6 for IC50 values of Peptide I.

peptide dimer of monomers (AcG)GLYACHMGPIT(1-nal)VCQPLR(MeG)K (SEQ ID NO: 2) (Ac-GGLYACHMGPIT[1Nal]VCQPLR[Sar]K; disulfide 6-15 (inferred); not fully specified (residue 1); printed as (AcG)GLYACHMGPIT(1-nal)VCQPLR(MeG)K; also: homodimer, dimer linkage not given here) [Peptide I]
IC50: 0.111 nM
